This note sets out measurements from the RNAGym collection of RNA variant scans (doi:10.1073/pnas.2313332121).

First the molecules themselves.
B1: TPR t1 (parent)
chain: GACCAAUCUGCCCUCAGAGCUCGAGAACAUCUUCGGAUGCAGAGGAGGCAGGCUUCGGUGGCGCGAUAGCGCCAACGUCCUCAACCUCCAAUGCAUCCCACCACAUGAUGAUGCCUGAAGAGCCUUGGUUUUUUG

Variants of B1 are the subject of the data set. Description: polymerase ribozyme fitness, log enrichment relative to wild type (log ratio); higher = more active; in vitro selection for triplet polymerase activity. In outline:
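Frozen incubation at −7 °C formed the core of a single, triplicate in vitro selection round applied to PCR-built, transcribed mutant libraries of each subunit of a heterodimeric triplet polymerase ribozyme. Extended constructs were gel-excised, captured with streptavidin beads and amplified by RT-PCR, and input and output libraries were Illumina-sequenced with a filter of ≥10 input reads and ≥1 read per output. Fitness is the logarithm of genotype enrichment relative to wild-type enrichment, with inverse-variance-weighted replicate averaging, and the logarithm is base 2.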
C11G A111G G120C G127U: the “polymerase ribozyme fitness (log ratio)” value was found to be 0.661.
Consider G10A U21G G52A G69C U78G C115G U133G, for which the “polymerase ribozyme fitness (log ratio)” value is -7.23.
Turning to G10U U14A, the “polymerase ribozyme fitness (log ratio)” value was -1.65.
Under C11G A18U A46U G57A stands -4.09; under G10U G61A, 0.0248.
On to C11G A84U G122A, for which the “polymerase ribozyme fitness (log ratio)” value stood at 0.157.
The result for C11G C49U C72G reads -0.598.
For C11G C31U G52A U96G G120C, the “polymerase ribozyme fitness (log ratio)” value is -5.5.
On to C11A A16U A24U C31G C34G A37C C73A C115U G117C, for which the “polymerase ribozyme fitness (log ratio)” value is -7.35.
Regarding C11A G113C, the “polymerase ribozyme fitness (log ratio)” value was -2.93.
Under G10U G47C C64U stands -1.28; under G10U C62U, -0.108; under G10U C62A, -1.53.
For the variant G10A C98U C115A, the “polymerase ribozyme fitness (log ratio)” value is -2.67.
The result for G10C G42C G44U C72U U87G reads -5.88; that for G10A C53A, -0.00777; that for C11A C13G C62G, -3.87.
With G10U G52U U96G, the “polymerase ribozyme fitness (log ratio)” value was -0.544.
For the variant G10C G77U A111U, the “polymerase ribozyme fitness (log ratio)” value was -4.57.
As to G10A G63A C86U, the “polymerase ribozyme fitness (log ratio)” value was -1.07.
Consider C11G C15U C56U A83U, for which the “polymerase ribozyme fitness (log ratio)” value is -1.12.
In the case of C11G C20U C22A G39C, the “polymerase ribozyme fitness (log ratio)” value is -5.35.
Turning to C11G A37U C70A A83C A121C, the “polymerase ribozyme fitness (log ratio)” value was determined as 0.293.
For the variant C11A G39U C86U C104U G110A, the “polymerase ribozyme fitness (log ratio)” value is -2.77.
On to G10C A37U G63U U96A C124U U129G, for which the “polymerase ribozyme fitness (log ratio)” value is -4.44.
Turning to G10A G48C U54A C94U G110U A121C C123G, the “polymerase ribozyme fitness (log ratio)” value is -1.01.
As for C11A C70U C76A, the “polymerase ribozyme fitness (log ratio)” value is -3.78.
In the case of G10A C40U A46C U130G, the “polymerase ribozyme fitness (log ratio)” value was -2.46.
Regarding C11A C40U G45A G61A U96G C124A, the “polymerase ribozyme fitness (log ratio)” value turned out to be 0.365.
With G10U C11G G35A C64U C123A, the “polymerase ribozyme fitness (log ratio)” value is -5.01.
In the case of C11G C22A A26C C102A, the “polymerase ribozyme fitness (log ratio)” value is -5.19.
For the variant C11A C12A C22A C40U A46U U78C C114A, the “polymerase ribozyme fitness (log ratio)” value was -6.96.
For C11G C15A, the “polymerase ribozyme fitness (log ratio)” value was -0.327.
As to G10U G93A C99U, the “polymerase ribozyme fitness (log ratio)” value was -4.71.
Consider C11A G117U, for which the “polymerase ribozyme fitness (log ratio)” value is -3.48.
Under C11A G117A stands -3.3; under C11A G48A C62U G128C, -3; under C11A C13U G19A C56G C72U, -4.6.
Regarding G10C U78C, the “polymerase ribozyme fitness (log ratio)” value was -1.63.
For C11A C15U C34G C62G A95U G110U G120A, the “polymerase ribozyme fitness (log ratio)” value is -7.3.
In the case of C11A A111C U131A, the “polymerase ribozyme fitness (log ratio)” value was -2.03.
Under G10U A75U G77A C86A stands -1.69.
Under C11G C70G G77U A103C A121C U132A stands -5.85; under C11A C53G C64U C97U C101G G135C, -3.13; under G10A C22G G57C, -2.92.
Take C11A C22U: the “polymerase ribozyme fitness (log ratio)” value is -5.15.
G10C C20A: the “polymerase ribozyme fitness (log ratio)” value was -3.95.
With G10U A18G A43C C72U C80U C85U G120U, the “polymerase ribozyme fitness (log ratio)” value was -3.18.
Under G10U C56U U116A stands -3.65; under C11A C85U U133G, -2.41.
As to C11G C12G, the “polymerase ribozyme fitness (log ratio)” value was -1.01.
Regarding G10A C13G A27U C72U A105U, the “polymerase ribozyme fitness (log ratio)” value is -3.22.
C11G A24G A37C G42A U92C A118U: the “polymerase ribozyme fitness (log ratio)” value is -3.62.
Regarding C11A A46U C53A C72A, the “polymerase ribozyme fitness (log ratio)” value is -2.19.
As to G10A U133G, the “polymerase ribozyme fitness (log ratio)” value was -0.322.
The result for G10U G44C G61C reads -3.37; that for G10A U55C C70U, -0.798; that for C11A U132C, -1.49.
The result for C11A G69U G120A U132A reads 2; that for C11G C49A C64U, -0.24.
As for G10A G42A G44A C72U, the “polymerase ribozyme fitness (log ratio)” value was -1.94.
The result for G10C G42C reads -2.24; that for C11A C12U C40A C56U C89A G122U, -2.66; that for C11A C99A C123A, -5.29.
Consider C11G C49A G61A, for which the “polymerase ribozyme fitness (log ratio)” value was 1.07.
Take C11G C73U U96A: the “polymerase ribozyme fitness (log ratio)” value was -0.543.
The result for C11G C15U G45C reads -1.34; that for G10C U14G C70U A91C, -4.25; that for C11G C13U A84U A91U G93C, -2.67.
On to G10A C20G A41C G48A G69U A84G, for which the “polymerase ribozyme fitness (log ratio)” value was -3.37.
As to C11A A37G U81G, the “polymerase ribozyme fitness (log ratio)” value was -5.66.
As for G10C C20A G39C A46C, the “polymerase ribozyme fitness (log ratio)” value is -5.66.
As to G10U C22U A46G U54G C56G G61A A74U U92A C114A U116A, the “polymerase ribozyme fitness (log ratio)” value was -6.68.
With G10A U109A, the “polymerase ribozyme fitness (log ratio)” value is -5.39.
Take C11G A29C U55G A84G G113A: the “polymerase ribozyme fitness (log ratio)” value is -4.47.
As to G10A G52A G60A C79A C115A U132A, the “polymerase ribozyme fitness (log ratio)” value was -1.53.
As to C11A U81A, the “polymerase ribozyme fitness (log ratio)” value was -2.74.
The result for G10U C11G G47C G58A C62G reads -3.87; that for C11A G93C C102A, -3.43; that for G10U C15G, -1.83.
Under G10U C70U A83U A90G C115U stands -2.59.
On to G10U C13U G57C G58U C88U G107A C123U, for which the “polymerase ribozyme fitness (log ratio)” value is -6.52.
Under G10C U30C G71A G117A stands -5.64.
